Results on two molecules are retold here after patent US20120258109A1 (Eli Lilly, published 2012).

The target in experiment [1] is Human Epigen (human, UniProt Q6UW88 24-104, limits assumed). The experiment in a line: cell-based or functional assay.
For experiment [2], the target named is T1, Met-human Epiregulin (human, UniProt O14944 63-108). The experiment in a line: cell-based or functional assay.
Experiment [3] deals with T2, Rat TGF-alpha (rat, UniProt P01134 39-88). The experiment in a line: cell-based or functional assay.
The target of experiment [4] is T3, Mouse Epiregulin (mouse, UniProt Q61521 56-101). The experiment in a line: cell-based or functional assay.
The target in experiment [5] is Cynomolgus Epiregulin (cynomolgus, UniProt O14944 63-108 (human entry), limits assumed). The experiment in a line: SPR (Biacore), antibody captured by anti-human Fc, ligand in solution, 25 C. How it is done: (§1) Biacore T2000 instrument (BIAcore® AB, Upsala, Sweden), reagents and Biacore T2000 Evaluation Software Ver 4.1 are used for the Surface Plasmon Resonance analysis. A CM5 chip is prepared using manufacturer's EDC/NHS amine coupling method. The surfaces of all four flow cells are activated by injecting a 1:1 mixture of EDC/NHS for 7 minutes at 10 μL/min. Goat anti-human Fc γ specific antibody is diluted to 50 μg/ml in 10 mM acetate, pH 4.0 buffer and immobilized for approximately 10000 RU onto all four flow cells by 7 minute injection at a flow rate of 10 μL/min. Un-reacted sites are blocked with a 7 minute injection of ethanolamine at 10 μL/min. Injections of 3×20 seconds of glycine pH 1.5 at 30 μL/min are used to remove non-covalently associated protein. The running buffer is HBS-EP [10 mM HEPES, 150 mM Sodium Chloride, 3 mM EDTA, 0.005% Polysorbate 20].
(§2) Duplicate injections of each ligand concentration are injected at 30 μL/min for 300 seconds followed by a dissociation phase. […] Regeneration is performed by injecting 10 mM glycine pH 1.5 for 3×20 seconds at 30 μL/min over all flowcell.
(§3) Reference-subtracted data are collected as Fc2−Fc1. The measurements are obtained at 25° C. The on-rate (kₒₙ) and off-rate (koff) for each ligand are evaluated using a “1:1 (Langmuir) Binding” binding model. The affinity (KD) is calculated from the binding kinetics according to the relationship: KD=koff/kₒₙ.
(SPR reads the build-up and loss of mass on a sensor chip optically.)

Experiment [6] deals with T1, Met-human Epiregulin. The experiment is described as above. As for the experimental part:
as §1, §2, §3

Experiment [7] addresses T2, Rat TGF-alpha. Described as above. As for the experimental part:
as §1, §2, §3

For experiment [8], the target named is T3, Mouse Epiregulin. The description is as above. As for the experimental part: as §1, §2, §3
The target of experiment [9] is Human TGF-alpha (human, UniProt P01135 40-89). The experiment in a line: cell-based or functional assay.
The target in experiment [10] is T3, Mouse Epiregulin. The experiment in a line: SPR (Biacore), antibody captured on the chip, ligand in solution, 25 C. How it is done: as §1
(§4) Duplicate injections of each ligand concentration are injected at 30 μL/min for 300 seconds followed by a dissociation phase. […] Regeneration is performed by injecting 10 mM glycine pH 1.5 for 30 seconds at 30 μL/min over all flowcell.
as §3

Experiment [11] concerns the target Mouse TGF-alpha (mouse, UniProt P48030 39-88, limits assumed). Described as above. How it is done: as §1, §4, §3

B1: Antibody I (antibody, human IgG4 S228P, kappa, F234A L235A, V domains shown)
VH: QVQLVQSGAEVKKPGSSVKVSCKASGYTFTDAYINWVRQAPGQGLEWMGWIWPGPVITYYNPKFKGRVTITADKSTSTAYMELSSLRSEDTAVYYCARREVLSPFAYWGQGTTVTVSS
VL: DIVMTQSPDSLAVSLGERATINCRSSQSIVHSTGNTYLEWYQQKPGQPPKLLIYKVSNRFSGVPDRFSGSGSGTDFTLTISSLQAEDVAVYYCFHGTHVPYTFGGGTKVEIKR
Consider B1, for which, in experiment [1], the “IC50 (nM), MFc7 proliferation assay (BrDU), ligand at 100 nM” value is 807 nM. In addition, the “IC50 (nM), MFc7 proliferation assay (BrDU), ligand at 0.5 nM” value in experiment [2] was found to be 3.15 nM; in experiment [3], 0.19 nM; in experiment [4], 334 nM. Moreover, the Kd in experiment [5] stood at 1.05 nM; in [6], 1.29 nM; in [7], 0.0705 nM; in [8] it was 342 nM.

B2: Antibody III (antibody, mouse IgG1, kappa, V domains shown)
VH: QVQLQQSGPELVKPGASVKISCKASGYTFTDAYINWVKQRPGQGLEWIGWIWPGPVITYYNPKFKGKATLTVDKSSSTAYMLLSSLTSEDSAFYFCARREVLSPFAYWGQGTLVTVSA
VL: DVLMTQTPLSLPVSLGDQASISCRSSQSIVHSTGNTYLEWYLQKPGQSPKLLIYKVSNRFSGVPDRFSGSGSGTDFTLKISRVEAEDLGVYYCFHGTHVPYTFGGGTKLEIKR
notes: same six CDRs as Antibody I
Consider B2, for which the “IC50 (nM), MFc7 proliferation assay (BrDU)” value in experiment [9] stood at 0.52 nM; in experiment [2] it was 1.12 nM. For the same molecule, the entries for the “IC50 (nM), MFc7 proliferation assay (BrDU), ligand at 0.5 nM” value in experiment [3] and in experiment [4] were 0.13 nM and 214 nM, respectively. Also, the results for the Kd in [10] and in experiment [11] were 215 nM and 0.038 nM, respectively. Further, the koff was 0.0141 s⁻¹ in experiment [10] and 2.02e-05 s⁻¹ in [11]. In addition, the kon in [10] is 65500 M⁻¹ s⁻¹; in experiment [11], 541000 M⁻¹ s⁻¹.

The Kd is the constant that tells how readily two partners part at equilibrium. Lower therefore signals a tighter complex. A word on the koff: it is the rate constant with which the complex falls apart. A low value points to a long-lived complex. The kon is the second-order rate constant of association. A lower kon goes with slower complex formation.
